Here are results for one substance from doi:10.1101/2022.03.10.483824.

This experiment deals with Full length native cardiac myosin II from rabbit heart ventricle (rabbit) (UniProt P04461). Nature of the experiment: optical trapping.

“Biotinylated actin filament (chicken G actin polymerised with biotinylated G actin) (from UniProt P68139 1-377) (natural protein)” gave a maximum AM detachment rate (kcat, at saturating ATP) of 88.2 s⁻¹.
